Target: Neutrophil elastase enzyme (Neutrophil Elastase Colorimetric Drug Discovery Kit, Enzo Life Sciences) (UniProt P08246)
Assay: cell-based or functional assay

Sequence of UniProt P08246 (P08246 30-247 limits assumed): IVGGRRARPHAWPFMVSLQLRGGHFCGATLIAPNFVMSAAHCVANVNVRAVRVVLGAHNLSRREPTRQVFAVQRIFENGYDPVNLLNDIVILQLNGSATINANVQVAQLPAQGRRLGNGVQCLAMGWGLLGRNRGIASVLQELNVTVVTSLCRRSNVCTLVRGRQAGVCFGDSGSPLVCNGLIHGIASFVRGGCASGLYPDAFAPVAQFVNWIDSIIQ

endogenous A1AT of wild type mice (from UniProt O89094 168-257)
Average % Inhibition (Percent inhibition of Neutrophil Elastase in purified serum samples): 95.6%

From patent US20260007772A1
